In US7501496:
Blank lines part the entries; values can stand above or below the substance they belong to.

Columns and labels:
[1] = biological target: human OX40L expressed on cells (K562-hOX40L cells; HUVEC) (human) (UniProt P23510); assay: FACS on HUVEC; <KLH> 10 µg/ml 2.5 h, no staining antibody, secondary anti-human IgG-Alexa488 (media control 5.17)
[2] = biological target: activated C3c (generated via activation of C3, from human pooled serum) (human) (UniProt P01024); assay: cell-based or functional assay
activated C3c (generated via activation of C3, from human pooled serum) (human), sequence (P01024 23-1663 limits assumed): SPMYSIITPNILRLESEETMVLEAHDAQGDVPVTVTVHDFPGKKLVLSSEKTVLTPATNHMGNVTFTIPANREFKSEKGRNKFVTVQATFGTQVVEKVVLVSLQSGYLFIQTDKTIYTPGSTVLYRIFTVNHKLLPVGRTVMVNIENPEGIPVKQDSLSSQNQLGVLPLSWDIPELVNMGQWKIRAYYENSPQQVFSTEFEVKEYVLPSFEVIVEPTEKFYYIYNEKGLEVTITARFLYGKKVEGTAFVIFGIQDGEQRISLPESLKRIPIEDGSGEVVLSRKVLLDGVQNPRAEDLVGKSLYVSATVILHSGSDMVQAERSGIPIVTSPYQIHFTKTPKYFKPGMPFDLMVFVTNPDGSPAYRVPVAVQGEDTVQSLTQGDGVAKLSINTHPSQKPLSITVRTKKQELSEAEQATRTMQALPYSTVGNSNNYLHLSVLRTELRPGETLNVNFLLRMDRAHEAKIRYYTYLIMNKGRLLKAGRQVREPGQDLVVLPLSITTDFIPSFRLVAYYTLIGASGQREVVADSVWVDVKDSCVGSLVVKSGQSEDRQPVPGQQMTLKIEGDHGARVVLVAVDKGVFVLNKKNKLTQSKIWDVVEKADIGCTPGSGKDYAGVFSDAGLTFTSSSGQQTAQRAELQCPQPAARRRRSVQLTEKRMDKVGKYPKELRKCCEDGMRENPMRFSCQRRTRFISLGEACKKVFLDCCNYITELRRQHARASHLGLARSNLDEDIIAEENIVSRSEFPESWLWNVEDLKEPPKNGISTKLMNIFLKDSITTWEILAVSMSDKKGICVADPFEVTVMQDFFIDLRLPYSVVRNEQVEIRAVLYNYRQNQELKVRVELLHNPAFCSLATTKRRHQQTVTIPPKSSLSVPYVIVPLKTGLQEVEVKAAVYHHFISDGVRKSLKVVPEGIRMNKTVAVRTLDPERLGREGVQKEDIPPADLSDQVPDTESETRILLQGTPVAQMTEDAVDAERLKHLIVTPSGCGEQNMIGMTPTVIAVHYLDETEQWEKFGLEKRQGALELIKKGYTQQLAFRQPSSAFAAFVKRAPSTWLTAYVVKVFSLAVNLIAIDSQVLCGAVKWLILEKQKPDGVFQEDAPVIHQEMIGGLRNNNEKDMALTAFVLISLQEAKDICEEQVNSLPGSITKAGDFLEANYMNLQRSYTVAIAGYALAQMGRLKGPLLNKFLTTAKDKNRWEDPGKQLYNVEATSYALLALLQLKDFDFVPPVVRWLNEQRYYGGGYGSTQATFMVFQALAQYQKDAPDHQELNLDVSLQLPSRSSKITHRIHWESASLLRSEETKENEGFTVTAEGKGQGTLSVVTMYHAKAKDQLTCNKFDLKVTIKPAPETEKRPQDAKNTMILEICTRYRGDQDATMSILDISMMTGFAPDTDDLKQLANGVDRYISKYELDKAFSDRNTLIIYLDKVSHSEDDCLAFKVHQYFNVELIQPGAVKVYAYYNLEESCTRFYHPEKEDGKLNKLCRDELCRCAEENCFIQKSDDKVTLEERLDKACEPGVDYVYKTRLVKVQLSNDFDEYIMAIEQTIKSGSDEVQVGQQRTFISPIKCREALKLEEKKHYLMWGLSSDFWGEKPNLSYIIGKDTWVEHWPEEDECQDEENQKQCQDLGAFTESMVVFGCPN

[3] = biological target: complement factor C1q (recombinant C1q) (human) (UniProt P02745); assay: ELISA; plate coated with serially diluted antibody, recombinant C1q added, anti-C1q detection
complement factor C1q (recombinant C1q) (human), sequence (P02745 23-245 limits assumed, chain 1 of 3): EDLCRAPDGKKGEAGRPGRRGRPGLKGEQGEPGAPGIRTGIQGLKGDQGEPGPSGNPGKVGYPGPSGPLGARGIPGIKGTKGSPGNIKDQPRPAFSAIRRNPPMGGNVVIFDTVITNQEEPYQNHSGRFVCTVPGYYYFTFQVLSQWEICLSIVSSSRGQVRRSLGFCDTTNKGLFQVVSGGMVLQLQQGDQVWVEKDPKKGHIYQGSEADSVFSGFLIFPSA
complement factor C1q (recombinant C1q) (human), sequence (P02746 28-253 limits assumed, chain 2 of 3, further chain): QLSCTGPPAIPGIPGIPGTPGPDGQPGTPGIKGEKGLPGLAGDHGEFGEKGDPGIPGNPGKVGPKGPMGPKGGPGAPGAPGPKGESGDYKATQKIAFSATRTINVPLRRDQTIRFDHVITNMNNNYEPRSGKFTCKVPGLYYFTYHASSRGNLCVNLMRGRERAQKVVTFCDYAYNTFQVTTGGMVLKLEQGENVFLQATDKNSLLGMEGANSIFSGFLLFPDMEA
complement factor C1q (recombinant C1q) (human), sequence (P02747 29-245 limits assumed, chain 3 of 3, further chain): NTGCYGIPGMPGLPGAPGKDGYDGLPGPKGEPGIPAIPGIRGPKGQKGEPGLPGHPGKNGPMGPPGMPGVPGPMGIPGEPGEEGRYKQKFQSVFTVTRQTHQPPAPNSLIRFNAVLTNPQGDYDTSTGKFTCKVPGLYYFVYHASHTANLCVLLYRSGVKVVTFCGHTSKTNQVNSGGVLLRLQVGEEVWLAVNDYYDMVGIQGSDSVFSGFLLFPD

[4] = biological target: complement factor C1q (recombinant C1q) (human) (UniProt P02745); assay: ELISA; coated antibody, recombinant C1q, maximum binding at 10 µg/ml
[5] = biological target: human OX40L expressed on cells (K562-hOX40L cells; HUVEC) (human) (UniProt P23510); assay: FACS on HUVEC; <KLH> 10 µg/ml 24 h, no staining antibody, secondary anti-human IgG-Alexa488 (media control 5.39)
[6] = biological target: human OX40L expressed on cells (K562-hOX40L cells; HUVEC) (human) (UniProt P23510); assay: FACS on HUVEC; TAG-34 10 µg/ml 24 h, no restaining, secondary anti-murine IgG-Alexa488 (down-modulation of hOX40L)
[7] = biological target: human OX40L expressed on cells (K562-hOX40L cells; HUVEC) (human) (UniProt P23510); assay: flow cytometry on K562-hOX40L cells, FITC rabbit anti-mouse IgG
[8] = biological target: Recombinant soluble human OX40L fused to a Histidine tag (human) (UniProt P23510); assay: SPR competition; hOX40L-His (10 nM) preincubated with antibody (0.78-100 nM), injected over immobilized OX40-hFc
Recombinant soluble human OX40L fused to a Histidine tag (human), sequence (P23510 51-183): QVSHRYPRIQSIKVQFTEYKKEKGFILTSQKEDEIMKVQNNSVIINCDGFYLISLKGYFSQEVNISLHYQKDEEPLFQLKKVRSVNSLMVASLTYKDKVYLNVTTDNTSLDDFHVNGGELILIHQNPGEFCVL

[9] = biological target: human OX40L expressed on cells (K562-hOX40L cells; HUVEC) (human) (UniProt P23510); assay: cell-based or functional assay
[10] = biological target: human OX40L expressed on cells (K562-hOX40L cells; HUVEC) (human) (UniProt P23510); assay: FACS on HUVEC; <KLH> 24 h, then staining with TAG-34, secondary anti-murine IgG-Alexa488
[11] = biological target: human OX40L expressed on cells (K562-hOX40L cells; HUVEC) (human) (UniProt P23510); assay: FACS on HUVEC; <KLH> 2.5 h, then staining with TAG-34, secondary anti-murine IgG-Alexa488
[12] = biological target: Recombinant soluble human OX40L fused to a Histidine tag (human) (UniProt P23510); assay: SPR, Biacore 3000; antibody captured via anti-Fcγ on CM5, hOX40L-His as analyte, 1:1 Langmuir fit
[13] = biological target: human OX40L expressed on cells (K562-hOX40L cells; HUVEC) (human) (UniProt P23510); assay: FACS on HUVEC; TAG-34 10 µg/ml 2.5 h, no restaining, secondary anti-murine IgG-Alexa488 (down-modulation of hOX40L)
[14] = biological target: human OX40L expressed on cells (K562-hOX40L cells; HUVEC) (human) (UniProt P23510); assay: FACS on HUVEC; TAG34 10 µg/ml 24 h, restaining with TAG-34, secondary anti-murine IgG-Alexa488 (down-modulation of hOX40L)
[15] = biological target: human OX40L expressed on cells (K562-hOX40L cells; HUVEC) (human) (UniProt P23510); assay: FACS on HUVEC; media control 2.5 h, then staining with TAG-34, secondary anti-murine IgG-Alexa488
[16] = biological target: human OX40L expressed on cells (K562-hOX40L cells; HUVEC) (human) (UniProt P23510); assay: blocking FACS on K562_OX40L cells: antibody as competitor, blocked ligand Dig-labelled hOX40:hFc, read with anti-digoxigenin-fluorescein
[17] = biological target: human OX40L expressed on cells (K562-hOX40L cells; HUVEC) (human) (UniProt P23510); assay: FACS on HUVEC; TAG34 10 µg/ml 2.5 h, restaining with TAG-34, secondary anti-murine IgG-Alexa488 (down-modulation of hOX40L)
[18] = biological target: human OX40L expressed on cells (K562-hOX40L cells; HUVEC) (human) (UniProt P23510); assay: FACS on HUVEC; media control 24 h, then staining with TAG-34, secondary anti-murine IgG-Alexa488
[19] = biological target: human FcγRIIa on stably transfected IIA1.6 cells (human) (UniProt P12318); assay: flow cytometry on IIA1.6 cells with human FcγRIIa, maximum binding at 10 µg/ml
human FcγRIIa on stably transfected IIA1.6 cells (human), sequence (P12318 34-317): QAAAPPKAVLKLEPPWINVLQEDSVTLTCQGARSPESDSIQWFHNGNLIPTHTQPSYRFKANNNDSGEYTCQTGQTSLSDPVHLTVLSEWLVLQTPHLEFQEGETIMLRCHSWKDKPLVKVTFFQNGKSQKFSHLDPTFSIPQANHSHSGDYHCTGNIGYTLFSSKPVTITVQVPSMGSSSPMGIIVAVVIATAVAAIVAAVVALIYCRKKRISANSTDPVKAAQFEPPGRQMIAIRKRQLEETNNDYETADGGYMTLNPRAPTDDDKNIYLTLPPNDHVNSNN

[20] = biological target: human FcγRIIb on stably transfected IIA1.6 cells (human) (UniProt P31994); assay: flow cytometry on IIA1.6 cells with human FcγRIIb, maximum binding at 10 µg/ml
human FcγRIIb on stably transfected IIA1.6 cells (human), sequence (P31994 43-310): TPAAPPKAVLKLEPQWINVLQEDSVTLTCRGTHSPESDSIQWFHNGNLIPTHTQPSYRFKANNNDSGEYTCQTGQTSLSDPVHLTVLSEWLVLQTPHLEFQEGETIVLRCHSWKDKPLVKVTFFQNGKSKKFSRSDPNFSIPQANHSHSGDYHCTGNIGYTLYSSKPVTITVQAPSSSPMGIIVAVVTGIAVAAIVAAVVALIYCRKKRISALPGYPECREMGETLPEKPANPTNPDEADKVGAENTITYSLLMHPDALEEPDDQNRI

human OX40L expressed on cells (K562-hOX40L cells; HUVEC) (human), sequence (P23510 whole entry, the tested form may be a part): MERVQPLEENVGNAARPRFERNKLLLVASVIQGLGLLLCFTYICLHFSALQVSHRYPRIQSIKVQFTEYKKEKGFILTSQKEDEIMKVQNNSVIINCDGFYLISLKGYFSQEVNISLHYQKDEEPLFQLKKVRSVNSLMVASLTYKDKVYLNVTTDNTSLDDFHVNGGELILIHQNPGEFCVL

Substance: HuMab antibody directed against Keyhole Limpet Hemocyanin (alpha-KLH)
MFI [1]: 4.76 MFI | C3c deposition ELISA, Bmax (OD405) [2]: 2.63 OD405 | C3c deposition ELISA, EC50 [2]: 2.16 µg/mL | EC50 [3]: 2.57 µg/mL | Bmax (OD405) [4]: 3.31 OD405 | MFI [5]: 4.74 MFI

Substance: Human IgG1 (The Binding Site), control antibody
C3c deposition ELISA, Bmax (OD405) [2]: 2.54 OD405 | C3c deposition ELISA, EC50 [2]: 5.45 µg/mL | EC50 [3]: 4.17 µg/mL | Bmax (OD405) [4]: 2.69 OD405

Substance: TAG34, anti-human OX40L monoclonal antibody
MFI [6]: 7.39 MFI | EC50 (read off the curve) [7]: 2 µg/mL | IC50 [8]: 7 nM | IC50, IL-2 release of PHA-activated PBL co-stimulated with K562 OX40L cells [9]: 70 nM | MFI [10]: 31.6 MFI | MFI [11]: 30.8 MFI | Kd [12]: 0.375 nM | koff [12]: 3.32e-05 s⁻¹ | kon [12]: 88400 M⁻¹ s⁻¹ | MFI [13]: 9.44 MFI | MFI [14]: 14.9 MFI | MFI [15]: 31.8 MFI | IC50 (read off the curve) [16]: 1 µg/mL | MFI [17]: 8.97 MFI | MFI [18]: 25.3 MFI

Now from value to substance:

Bmax (MFI) [19]: 537 MFI | Bmax (MFI) [20]: 419 MFI
Substance: human IgG3 (The Binding Site), control antibody

C3c deposition ELISA, Bmax (OD405) [2]: 0.095 OD405 | Bmax (OD405) [4]: 0.353 OD405
Substance: human IgG4 (The Binding Site), control antibody
